Results published in patent US20220235118A1 (IMMUNOME, published 2022).

Tests used:
[1] = molecular target: T1, SARS-CoV-2 Spike RBD A475V (SARS-CoV-2, UniProt P0DTC2 319-541); assay: HTRF, soluble RBD construct
T1 construct: domain: RBD

[2] = molecular target: T2, SARS-CoV-2 Spike RBD N439K (SARS-CoV-2, UniProt P0DTC2 319-541); assay: HTRF, soluble RBD construct
T2 construct: domain: RBD

[3] = molecular target: T3, SARS-CoV-2 Spike RBD N501Y (SARS-CoV-2, UniProt P0DTC2 319-541); assay: HTRF, soluble RBD construct
T3 construct: domain: RBD

[4] = molecular target: T4, SARS-CoV-2 Spike RBD A352S (SARS-CoV-2, UniProt P0DTC2 319-541); assay: HTRF, soluble RBD construct
T4 construct: domain: RBD

[5] = molecular target: T5, SARS-CoV-2 Spike RBD K417N (SARS-CoV-2, UniProt P0DTC2 319-541); assay: HTRF, soluble RBD construct
T5 construct: domain: RBD

[6] = molecular target: T6, SARS-CoV-2 Spike RBD E406Q (SARS-CoV-2, UniProt P0DTC2 319-541); assay: HTRF, soluble RBD construct
T6 construct: domain: RBD

[7] = molecular target: T7, SARS-CoV-2 Spike RBD Y453F (SARS-CoV-2, UniProt P0DTC2 319-541); assay: HTRF, soluble RBD construct
T7 construct: domain: RBD

[8] = molecular target: Spike protein D614G (SARS-CoV-2/human/Germany/BavPat 1/2020) on pseudovirus or live virus (SARS-CoV-2, UniProt P0DTC2 14-1273); assay: cell-based or functional assay
[9] = molecular target: Spike protein of the U.K. (B.1.1.7, Alpha) variant on pseudovirus or live virus (SARS-CoV-2, UniProt P0DTC2 14-1273); assay: cell-based or functional assay
[10] = molecular target: T8, SARS-CoV-2 Spike RBD E484K (SARS-CoV-2, UniProt P0DTC2 319-541); assay: HTRF, soluble RBD construct
T8 construct: domain: RBD

[11] = molecular target: T1, SARS-CoV-2 Spike RBD A475V; assay: HTRF, soluble RBD construct; remark: listed apart in the source
[12] = molecular target: T2, SARS-CoV-2 Spike RBD N439K; assay: HTRF, soluble RBD construct; remark: listed apart in the source
[13] = molecular target: T9, SARS-CoV-2 Spike RBD K444R (SARS-CoV-2, UniProt P0DTC2 319-541); assay: HTRF, soluble RBD construct
T9 construct: domain: RBD

[14] = molecular target: T3, SARS-CoV-2 Spike RBD N501Y; assay: HTRF, soluble RBD construct; remark: listed apart in the source
[15] = molecular target: T4, SARS-CoV-2 Spike RBD A352S; assay: HTRF, soluble RBD construct; remark: listed apart in the source
[16] = molecular target: T5, SARS-CoV-2 Spike RBD K417N; assay: HTRF, soluble RBD construct; remark: listed apart in the source
[17] = molecular target: T10, SARS-CoV-2 Spike RBD L452R (SARS-CoV-2, UniProt P0DTC2 319-541); assay: HTRF, soluble RBD construct
T10 construct: domain: RBD

[18] = molecular target: T11, SARS-CoV-2 Spike RBD E484Q (SARS-CoV-2, UniProt P0DTC2 319-541); assay: HTRF, soluble RBD construct
T11 construct: domain: RBD

[19] = molecular target: T6, SARS-CoV-2 Spike RBD E406Q; assay: HTRF, soluble RBD construct; remark: listed apart in the source
[20] = molecular target: T12, SARS-CoV-2 Spike RBD F486S (SARS-CoV-2, UniProt P0DTC2 319-541); assay: HTRF, soluble RBD construct
T12 construct: domain: RBD

[21] = molecular target: T7, SARS-CoV-2 Spike RBD Y453F; assay: HTRF, soluble RBD construct; remark: listed apart in the source
[22] = molecular target: T13, SARS-CoV-2 Spike S1 domain A222S, D614G (SARS-CoV-2, UniProt P0DTC2 16-685); assay: HTRF, soluble S1 construct
T13 construct: domain: S1; also called Spanish (A222S, D614G)

[23] = molecular target: T14, SARS-CoV-2 Spike S1 domain K417N, E484K, N501Y, D614G (SARS-CoV-2, UniProt P0DTC2 16-685); assay: HTRF, soluble S1 construct
T14 construct: domain: S1; also called S. African (K417N, E484K, N501Y, D614G); B.1.351

[24] = molecular target: T15, SARS-CoV-2 Spike S1 domain ΔHV69/70, N501Y, D614G (SARS-CoV-2, UniProt P0DTC2 16-685); assay: HTRF, soluble S1 construct
T15 construct: domain: S1; also called U.K. partial (ΔHV69/70, N501Y D614G)

[25] = molecular target: T16, SARS-CoV-2 Spike S1 domain ΔHV69/70, ΔY144, N501Y, A570D, D614G, P681H (SARS-CoV-2, UniProt P0DTC2 16-685); assay: HTRF, soluble S1 construct
T16 construct: domain: S1; also called U.K. (B.1.1.7); DHV69/70, DY144, N501Y, A570D, D614G, P681H

[26] = molecular target: T17, SARS-CoV-2 Spike S1 domain ΔHV69/70, Y453F, D614G (SARS-CoV-2, UniProt P0DTC2 16-685); assay: HTRF, soluble S1 construct
T17 construct: domain: S1; also called Denmark (ΔHV69/70, Y453F, D614G); DHV69/70, Y453F, D614G

[27] = molecular target: T18, SARS-CoV-2 Spike S1 domain D614G (SARS-CoV-2, UniProt P0DTC2 16-685); assay: HTRF, soluble S1 construct
T18 construct: domain: S1

Row | Binder | fold over background [1] [fold over background] | fold over background [2] [fold over background] | fold over background [3] [fold over background] | fold over background [4] [fold over background] | fold over background [5] [fold over background] | fold over background [6] [fold over background] | fold over background [7] [fold over background] | IC50, neutralization of live virus in a virus internalization assay [8] [nM] | IC80, neutralization of live virus in a virus internalization assay [8] [nM] | IC90, neutralization of live virus in a virus internalization assay [8] [nM] | IC50, neutralization of live virus in a virus internalization assay [9] [nM] | IC80, neutralization of live virus in a virus internalization assay [9] [nM] | IC90, neutralization of live virus in a virus internalization assay [9] [nM] | EC50 [10] [nM] | EC50 [11] [nM] | EC50 [12] [nM] | EC50 [13] [nM] | EC50 [14] [nM] | EC50 [15] [nM] | EC50 [16] [nM] | also measured
1 | PR194_00232 (antibody, V domains shown, also called IMM20190; PR194_00190) VH: EVQLVESGGGLVQPGGSLRLSCSASGFTVSSNYMSWVRQAPRKGLEWVSVIYAGGSTFYADSVKGRFTISRDNSKNTLLLQMNSLRAEDTAVYYCARDRGGYLDYWGQGTLVTVSS VL: DIQMTQSPSSLSASVGDRVTITCRASQGISNYLAWYQQKPGKVPKLLIYAASTLQSGVPSRFSGSGSGTDFTLTISSLQPEDVATYYCQKYNSAPGLTFGGGTKVEIK | 7.47 | 5.95 | 4.3 | 6.75 | 2.25 | 8.81 | 5.94 | 0.35 | 1.43 | 3.06 | 2.66 | 13.7 | > 394 | 0.0334 | 0.0724 | 0.0689 | 0.0258 | 0.279 | 0.0219 | > 0.5 | EC50 [17]: 0.0318 nM; EC50 [18]: 0.0524 nM; EC50 [19]: 0.0677 nM; EC50 [20]: 0.0334 nM; EC50 [21]: 0.0646 nM; EC50 [22]: 0.0491 nM; EC50 [23]: 0.23 nM; EC50 [24]: 0.396 nM; EC50 [25]: > 0.5 nM; EC50 [26]: 0.0472 nM; EC50 [27]: 0.0627 nM
2 | PR200_00622 (antibody, V domains shown, also called IMM20253; PR200_00253) VH: QVQLVESGGGVVQPGRSLRLSCTASGFTFSTYGMHWVRQAPGKGLEWVAVISYDGSSKHYAESVKGRFTISRDNSNNTLYLQMNRLRAEDTAVYYCARDGQPPGWGNYFDYWGQGTLVTVAS VL: SYVLTQPPSVSVAPGKTARITCGGNGIGSKSVYWYQQKPGQAPEVVVYDDSDRPSGIPERFSGSNSGNTATLTISRVEAGDEADYYCQVWDSSSDPWVFGGGTKLTVL | 5.22 | 5.05 | 5.11 | 5.14 | 4.68 | 7.6 | 4.67 | 39.4 | 151 | 289 | 1.38 | 61.1 | 219 | 0.0316 | 0.033 | 0.0534 | 0.0261 | 0.0585 | 0.0317 | 0.0674 | EC50 [17]: 0.034 nM; EC50 [18]: 0.0238 nM; EC50 [19]: 0.0406 nM; EC50 [20]: 0.0259 nM; EC50 [21]: 0.0626 nM; EC50 [22]: 0.0449 nM; EC50 [23]: 0.0248 nM; EC50 [24]: 0.0216 nM; EC50 [25]: 0.0624 nM; EC50 [26]: 0.0664 nM; EC50 [27]: 0.0624 nM
3 | PR193_00018 (antibody, V domains shown, also called IMM20184; IMM200184) VH: EVQLVESGGGLVQPGGSLRLSCSASGFTFSSFWMSWVRQAPGKGLEWVATIREDGSEKYYVDSVKGRFSISRDNAKNSLYLQMNSLRAEDTAVYYCARSKWLRGSFDYWGQGTLVTVSS VL: NFMLTQPHSVSESPGKTVTISCTRRSGSIASNYVQWYQQRPGSAPTTVIYEDNQRPSGVPDRFSGSIDSSSNSASLTISGLQTEDEADYYCQSYDSSNPPGASWVFGGGTKLTVL | 4.42 | 4.43 | 4.92 | 4.62 | 3.64 | 6.58 | 4.74 | 33.8 | 126 | 236 | 43.3 | > 394 | > 394 | 0.0205 | 0.0279 | 0.051 | 0.0194 | 0.0398 | 0.0263 | 0.0437 | EC50 [17]: 0.0436 nM; EC50 [18]: 0.0216 nM; EC50 [19]: 0.0261 nM; EC50 [20]: 0.0221 nM; EC50 [21]: 0.0494 nM; EC50 [22]: 0.0269 nM; EC50 [23]: 0.0267 nM; EC50 [24]: 0.0143 nM; EC50 [25]: 0.0455 nM; EC50 [26]: 0.0316 nM; EC50 [27]: 0.0397 nM
